Tests used:
[1] = tested on: mouse anti-TGF-β1 monoclonal antibody, 1D11; assay: ELISA measured binding activity (immunoreactivity) of TGF-β1; settings: solution without alginate, up to 0.14% w/v additive
Procedure: The ability of released TGF-β1 from both untreated and acid treated beads (as described above) to be recognized (bound) by a monoclonal antibody was assayed by ELISA as follows. An enzyme linked immunosorbent assay (ELISA) was used to quantitate the amount of immunoreactive TGF-β1 released from the untreated (PBS) and acid treated (HCl) alginate beads. The ELISA was based on the ability of a mouse anti-TGF-β1 monoclonal antibody, 1D11 (Bristol-Myers Squibb, Seattle, WA), to bind to the TGF-β1 molecule. When the 1D11 antibody was coated on 96-well immunoassay plates it captured TGF-β1 from the applied sample and standard solutions. Captured TGF-β1 was then bound by biotinylated 1D11 antibody which in turn was bound by a horseradish peroxidase/avidin D conjugate (Vector Labs cat #A-2004). A color reaction occurred by adding a chromophore/substrate solution of 3,3',5,5'-tetramethylbenzidine in CPB containing hydrogen peroxide. The reaction was stopped with the addition of 1 N sulfuric acid and the A450 was determined by a plate reader. Concentrations of the unknown samples were quantified relative to a TGF-β1 standard curve run on the same plate.
The immunoreactivity of TGF-β1 in solution in the presence of anionic amino acids, polyanions and polycations was studied using the ELISA procedure described in Example 2. To 1 mg/mL solutions of TGF-β1 in 5 mM HCl was added from 0 to 0.14%(w/v) of glutamic acid, aspartic acid, poly-L-aspartic acid (PLAA, Mw=13 kDa), sodium carboxymethyl cellulose (Na CMC, high viscosity), or polyacrylic acid (PAA, 2, 90 or 750 kDa). The reactivity of the TGF-β1 was then determined by the ELISA procedure, as described in Example 2.
Next, the ability of the additives to […] was investigated. Alginate solutions were prepared in accordance with the procedure of Example 1, incorporating 50 μg of TGF-β1, 0-0.15% (w/v) of sodium alginate and 0.1-1.0 mg (up to 0.125% w/v) of PAA (750 kDa), PLAA (13 kDa), NaCMC high viscosity or glutamic acid. The immunoreactivity of TGF-β1 was determined by ELISA as described in Example 2.
Alginate beads were prepared according to the procedure of Example 1 incorporating 50 μg TGF-β1 and 0.1-1.0 mg of additives. […] In addition, Poly-L-Lysine (PLL;123 kDa) was incorporated as a potential polycationic competitor. The additives were incorporated at an alginate:additive w/w ratio of from 75:10 to 75:1 as indicated below in Table 3.
To further assess the effect of amount of PAA incorporation on immunoreactivity of released TGF-β1, alginate beads were prepared by incubating TGF-β1 and PAA (90 kDa) for either 5 or 60 minutes (see FIG. 7) in w/w ratios of 75:1, 75:6 and 75:10, followed by dilution, addition of alginate, and bead formation in 1% CaCl2. The beads were acid treated in 0.1 N HCl at 37° C. for 30 minutes and then incubated at 37° C. in PBS, pH 7.4.

[2] = tested on: gastrointestinal tract; settings: sequential chemotherapeutic protocols; cited from earlier work
[3] = tested on: cells of epithelial origin, including human and rodent derived intestinal cells; settings: cited from earlier work
[4] = type: physicochemical
Procedure: Beads prepared in accordance with the procedure of Example 1 and containing 50 μg of ^125 I-TGF-β1 in 3.75-7.5 mg (original weight of alginate) were transferred to 15.0 mL polypropylene tubes containing 13.0 mL of PBS or of 0.1 N HCl at 37° C. In some cases, 1% BSA was added to the release media. The polypropylene tubes were gently shaken using a orbital shaker (200 rotations/minutes). At selected times, 100 μL aliquots were taken and counted for radioactivity. Care was taken so that aliquots contained no beads or bead fragments. The cumulative ^125 I-TGF-β1 released from the beads was calculated after correcting for volume changes. After 24 hours, the beads in 0.1 N HCl were transferred to PBS.
Alginate beads containing TGF-β1 and 90 kDa PAA (75:10 w/w in alginate:PAA) were prepared following the procedure of Example 1, and were acid treated for 30 minutes at 37° C. in 0.1 N HCl, as described in Example 2. The beads were then placed in PBS, pH 7.4, and the immunoreactivity of released TGF-β1 was determined by ^125 I radiolabel and ELISA, as described in Example 2. In addition, a growth inhibitory assay (GIA) was used to determine the bioactivity of the TGF-β1. The GIA measures the ability of TGF-β1 to inhibit the growth of mink lung epithelial cells (ATCC #CCL64) (T. Ikedaet al., "Human Transforming Growth Factor Type β2: Production By a Prostatic Adenocarcinoma Cell Line, Purification and Initial Characterization," Biochemistry 26:2406-2410 (1987)). The activity of the growth factor was determined by the inhibitory response of the cells to different concentrations of TGF-β1. Cell viability was based on the enzymatic cleavage by metabolically active cells of a tetrazolium salt into an orange/red formazan product. Prior to the assay cells were trypsinized and plated in a 96-well flat bottomed plate (Costar) at a concentration of 1000 cells/well. After allowing the cells to attach, samples containing the TGF-β1 and a reference standard were diluted to concentrations ranging from 1000 to 1.95 pg/ml and added to the wells. The cells were incubated for four days after which time a 100 μL solution containing 25 μg of sodium 3"-[1-(phenylamino)-carbonyl]-3,4-tetrazolium-bis(4-methoxy-6-nitro) benzene sulfonic acid hydrate (Diagnostic Chemicals, Ltd.) and 5 mM phenazine methosulfate (Aldrich) in media was added to each well. The cells were then incubated for 7 hours and the plates read on a microplate reader at an absorbance of 450 nm with a 630 nm reference filter. The specific activity of a sample was calculated relative to the reference material.

[5] = tested on: mouse antiamphiregulin monoclonal antibody, 6R1C1; assay: ELISA of immunoreactive Amphiregulin released from alginate beads; type: binding; settings: PBS
Procedure: The procedure of Example 10 was repeated substituting 25 μg of Amphiregulin for the Oncostatin-M of Example 11 and using a mouse antiamphiregulin monoclonal antibody, 6R1C1 (Bristol-Myers Squibb, Seattle, WA) as the capture antibody, followed by a goat anti-mouse horseradish peroxidase probe (Southern Biotech). The results are shown in FIG. 9 in which the symbols have the meanings of FIG. 8.

[6] = tested on: mouse anti-Oncostatin-M antibody, 11R2; assay: ELISA of immunoreactive Oncostatin-M released from alginate beads; type: binding; settings: PBS
Procedure: Following the procedure of Example 1, alginate beads were prepared from 800 μl of an aqueous solution containing 25 μg of Oncostatin-M (site source) and 3750 μg of sodium alginate (Sigma, Low Viscosity). To a portion of the solution was added 300 μg of PAA (Jannsen, 90 kDa) prior to bead formation. Samples of the beads, both with and without added PAA, were subject to acid treatment by incubating the beads in 0.1 N HCl at 37° C. for 30 minutes, as described in Example 2. The beads were then placed in PBS, and the percentage amount of immunoreactive Oncostatin-M was determined by ELISA assay following the procedure of Example 2 using a mouse anti-Oncostatin-M antibody, 11R2 (Bristol-Myers Squibb, Seattle, WA) as the capture antibody and biotinylated 1R10 mouse anti-Oncostatin-M antibody (Bristol-Myers Squibb, Seattle, WA) as the probe, followed by horseradish peroxidase/avidin D. The results are shown in FIG. 8, in which (.quadrature.) represents acid treated beads containing PAA, represents bead containing PAA which were not acid treated, represents beads without PAA which were acid treated, and represents beads without PAA which were not acid treated.

N[C@@H](CCC(=O)O)C(=O)O [glutamic acid, L-glutamic acid, reference compound]
Interference of additive with ELISA measured binding activity of TGF-β1 [1]: interfered to a lesser extent

CO[C@@]12[C@H](COC(N)=O)C3=C(C(=O)C(C)=C(N)C3=O)N1C[C@@H]1N[C@@H]12 [mitomycinC]
Gastrointestinal toxic alterations [2]: surface and glandular epithelial atypia, immaturity and necrosis

Nc1ccn([C@@H]2O[C@H](CO)[C@@H](O)[C@@H]2O)c(=O)n1 [cytosine arabinoside]
Gastrointestinal toxic alterations [2]: surface and glandular epithelial atypia, immaturity and necrosis

O=c1[nH]c(=O)n([C@H]2C[C@H](O)[C@@H](CO)O2)cc1F [floxuridine]
Gastrointestinal toxic alterations [2]: surface and glandular epithelial atypia, immaturity and necrosis

TGF-β
Growth inhibition [3]: inhibit the growth of many cells of epithelial origin

N[C@@H](CC(=O)O)C(=O)O [aspartic acid, L-aspartic acid, reference compound]
Interference of additive with ELISA measured binding activity of TGF-β1 [1]: interfered to a lesser extent

^125 I-TGF-β1: TGF-β1 radioiodinated by a modified chloramine-T method
125I-TGF-β1 released in 0.1 N HCl ([4]; 0.1 N HCl, 24 hours, 37° C.): essentially no | Further 125I-TGF-β1 release ([4]; PBS, even after 72 hours): no further ^125 I-TGF-β1 was released | Lag period before release ([4]; PBS, pH 7.4, 37° C.): 4 h | Cumulative 125I-TGF-β1 released (plateau) ([4]; PBS, pH 7.4, 37° C., after 20 hours, no acid treatment, no PAA): 81% | 125I-TGF-β1 released after transfer from 0.1 N HCl to PBS ([4]; transferred to PBS after 24 hours in 0.1 N HCl, in 2.5 hours): 100%

B1: Amphiregulin: 25 μg of Amphiregulin encapsulated in alginate beads with or without PAA (protein, UniProt P15514 101-187, looked up)
Amphiregulin: SVRVEQVVKPPQNKTESENTSDKPKRKKKGGKNGKNRRNRKKKNPCNAEFQNFCIHGECKYIEHLEAVTCKCQQEYFGERCGEKSMK
modifications: encapsulated in alginate beads
notes: 25 μg of Amphiregulin encapsulated in alginate beads with or without PAA
Immunoreactive Amphiregulin released, acid treated beads containing PAA [5]: 67% | Immunoreactive Amphiregulin released, acid treated beads without PAA [5]: 31% | Immunoreactive Amphiregulin released, non acid treated beads containing PAA [5]: 52% | Immunoreactive Amphiregulin released, non acid treated beads without PAA [5]: 22%

B2: Oncostatin-M: 25 μg of Oncostatin-M encapsulated in alginate beads with or without PAA (protein, UniProt P13725 26-221, looked up)
Oncostatin-M: AAIGSCSKEYRVLLGQLQKQTDLMQDTSRLLDPYIRIQGLDVPKLREHCRERPGAFPSEETLRGLGRRGFLQTLNATLGCVLHRLADLEQRLPKAQDLERSGLNIEDLEKLQMARPNILGLRNNIYCMAQLLDNSDTAEPTKAGRGASQPPTPTPASDAFQRKLEGCRFLHGYHRFMHSVGRVFSKWGESPNRSRR
modifications: alginate bead encapsulation
notes: 25 μg of Oncostatin-M encapsulated in alginate beads with or without PAA
Immunoreactive Oncostatin-M released, acid treated beads containing PAA ([6]; PAA 90 kDa): 85% | Immunoreactive Oncostatin-M released, non acid treated beads containing PAA ([6]; PAA 90 kDa): 38% | Immunoreactive Oncostatin-M released, "non acid treated beads with PAA" (second value) [6]: 20% | Immunoreactive Oncostatin-M released, acid treated beads without PAA [6]: 18%

Reference: patent publication US5451411A, “Methods and compositions for the oral delivery of therapeutic agents” (University of Washington, priority 1993, dated 1995)
